# In PMC7835222, “PRMT3 interacts with ALDH1A1 and regulates gene-expression by inhibiting retinoic acid signaling” (Communications Biology, 2021):
# B1: His-tagged ALDH1A1 full length (pET28a-AL-FL) (enzyme, human, UniProt P00352 1-501, looked up)
# chain: MSSSGTPDLPVLLTDLKIQYTKIFINNEWHDSVSGKKFPVFNPATEEELCQVEEGDKEDVDKAVKAARQAFQIGSPWRTMDASERGRLLYKLADLIERDRLLLATMESMNGGKLYSNAYLNDLAGCIKTLRYCAGWADKIQGRTIPIDGNFFTYTRHEPIGVCGQIIPWNFPLVMLIWKIGPALSCGNTVVVKPAEQTPLTALHVASLIKEAGFPPGVVNIVPGYGPTAGAAISSHMDIDKVAFTGSTEVGKLIKEAAGKSNLKRVTLELGGKSPCIVLADADLDNAVEFAHHGVFYHQGQCCIAASRIFVEESIYDEFVRRSVERAKKYILGNPLTPGVTQGPQIDKEQYDKILDLIESGKKEGAKLECGGGPWGNKGYFVQPTVFSNVTDEMRIAKEEIFGPVQQIMKFKSLDDVIKRANNTFYGLSAGVFTKDIDKAITISSALQAGTVWVNCYGVVSAQCPFGGFKMSGNGRELGEYGFHEYTEVKTVTVKISQKNS
# notes: Retinal dehydrogenase 1 (ALDH1A1), human, full length; pET28a vector; also called His-tagged AL-FL
# Target: T1, GST-tagged PRMT3 full-length protein (pGEX-PR-FL) (human, UniProt O60678-1 1-531)
# T1 construct: Protein arginine methyltransferase 3 (PRMT3), human, full length; pGEX-6P2 vector; the legends mark a degraded GST-PRMT3 band beside the full-length one; also called GST-PRMT3; GST-PRMT3-FL
# T1 sequence (O60678 whole entry): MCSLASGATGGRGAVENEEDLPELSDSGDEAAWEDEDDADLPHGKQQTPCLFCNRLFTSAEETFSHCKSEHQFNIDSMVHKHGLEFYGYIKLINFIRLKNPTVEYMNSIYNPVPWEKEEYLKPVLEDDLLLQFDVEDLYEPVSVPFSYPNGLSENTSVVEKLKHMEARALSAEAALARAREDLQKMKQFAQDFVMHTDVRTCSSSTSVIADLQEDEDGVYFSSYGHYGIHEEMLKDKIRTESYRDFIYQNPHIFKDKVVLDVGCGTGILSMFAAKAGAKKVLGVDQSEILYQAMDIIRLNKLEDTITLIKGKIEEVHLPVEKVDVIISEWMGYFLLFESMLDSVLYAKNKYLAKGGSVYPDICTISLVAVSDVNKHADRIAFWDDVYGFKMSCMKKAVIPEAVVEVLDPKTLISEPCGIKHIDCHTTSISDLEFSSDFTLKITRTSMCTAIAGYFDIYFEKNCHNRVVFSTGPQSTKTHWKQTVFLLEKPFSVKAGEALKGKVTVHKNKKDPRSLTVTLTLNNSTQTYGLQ
# Assay: pull-down; 15 µg GST-PRMT3 (wild type or mutant) on Glutathione Sepharose, 15 µg His-tagged AL-FL in solution, with or without 200 µM SAM or SAH; 20 mM HEPES pH 7.5, 150 mM KCl, 0.2 mM DTT, 1 mM EDTA, 10% glycerol; 4 °C, 10 h; blot with His antibody
# Details: both partners purified
binder,measurement,value
B1,binding result,binds
